# B1: M2aM14173N (antibody, mouse IgG2a, kappa, V domains shown)
# VH: NVSLVESGGGSVKPGGSLQLSCAASGFTFSSSAMSWIRQTPEMRLEWVATISDRGSYTYYPDSVEGRFTISRDNAKNILYLQMSHLMSEDTAMYYCARGKGEKAYYTAFFAYWGQGSLVTVSA
# VL: DIQMTQSPASLSASVGETVTITCRASENIYSYLAWYQQKPGKSPHLLVHNAETLAEGVPSRFSGSGSGPQFSLKINSLQPGDSGTYYCQHHYSSPWTFGGGTKLEIKR
# notes: Anti-mouse TrkB antibody from hybridoma, mouse IgG2a Fc; also called surrogate anti-mouse TrkB antibody
# B2: M2aM14179N (antibody, mouse IgG2a, kappa, V domains shown)
# VH: EVQLQQSGPELVKPGASVKISCKASGYTLTDYYMNWVKQSHGKSLEWIGDINPNNGGTSYNQKFKGKATLTVDKSSSTAYMELRSLTSEDSAVYYCARGAYYSNYFDYWGQGTTLTVSS
# VL: DIVMSQSPSSLAVSAGEKVTMSCKSSQSLLNSRTRKNYLAWYQQKPGQSPKLLIYWASTRESGVPDRFTGSGSGTDFTLTISSVQAEDLAVYYCKQSYILFTFGSGTQLEIKR
# notes: as for B1
# B3: H1M8037C (antibody, mouse IgG1, kappa, V domains shown)
# VH: QVQLVQSGAEVKKPGASVKVSCKASGYTFTNYDIIWVRQAPGQGLEWMGYINPYNDGTKYNEKFKGRVTMTRDTSTSTVYMELSSLRSEDTAVYYCARLLKYRRFRYYAIDYWGQGTTVTVSS
# VL: DIQMTQSPSSLSASVGDRVTITCRTSENVYSNLAWYQQKPGKAPKLLIYAASNLQSGVPSRFSGSGSGTDYTFTISSLQPEDIATYYCQHFWGSPFTFGQGTKLEIKR
# notes: captured by anti-mFc in SPR; also called Comparator; comparator anti-TrkB monoclonal antibody
# Tests used:
# mouse TrkB.hFc = target: T1, mouse TrkB.hFc (mouse); test: blocking ELISA: constant mouse TrkB.hFc (REGN2277) pre-mixed with antibody, binding to plate-coated BDNF
# T1 construct: also called mTrkB.hFc; mTrkB-hFc
# T1 sequence (chain, as listed by the source limits assumed): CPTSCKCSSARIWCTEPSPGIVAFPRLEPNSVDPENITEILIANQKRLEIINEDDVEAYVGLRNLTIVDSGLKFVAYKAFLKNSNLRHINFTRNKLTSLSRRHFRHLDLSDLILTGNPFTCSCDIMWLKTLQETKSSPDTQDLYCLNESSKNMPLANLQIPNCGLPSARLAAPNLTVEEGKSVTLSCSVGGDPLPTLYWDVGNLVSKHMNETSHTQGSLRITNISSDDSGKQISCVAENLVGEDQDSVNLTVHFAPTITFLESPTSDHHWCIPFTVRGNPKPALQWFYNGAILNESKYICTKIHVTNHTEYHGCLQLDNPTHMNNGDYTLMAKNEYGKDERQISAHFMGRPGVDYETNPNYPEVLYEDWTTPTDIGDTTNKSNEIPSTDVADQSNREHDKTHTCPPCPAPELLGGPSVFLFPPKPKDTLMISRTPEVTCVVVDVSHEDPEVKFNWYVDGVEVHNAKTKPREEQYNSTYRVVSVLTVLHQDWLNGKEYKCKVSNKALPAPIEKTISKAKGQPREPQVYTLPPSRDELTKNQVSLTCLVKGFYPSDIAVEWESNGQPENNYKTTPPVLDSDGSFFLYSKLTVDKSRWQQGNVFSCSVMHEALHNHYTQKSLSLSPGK
# Procedure: (§1) Experiments were carried out using the following procedure. Human BDNF was coated at a concentration of 0.5 μg/mL (for blocking mouse TrkB.hFc interaction) or 0.3 μg/mL (for blocking rat TrkB.mmh interaction) in PBS on 96-well microtiter plate and incubated overnight at 4° C. […] In a 96-well dilution plate, 850 pM mouse TrkB.hFc or rat TrkB.mmh was mixed with the three-fold serially diluted anti-mouse TrkB antibodies and control antibody. The final antibody concentrations ranged from 1.69 pM to 100 nM. The protein-antibody mix was incubated at room temperature (RT) for 1 hour. The pre-bound mix was then transferred in duplicates to microtiter plates coated with BDNF. […] Plate-bound mouse TrkB.hFc was detected with HRP-conjugated goat anti-human Fcγ fragment specific antibody (Jackson Immunoresearch) and rat TrkB.mmh was detected with HRP-conjugated anti-histidine antibody (Qiagen). […]
# (§2) The absorbance at 450 nm for each well was recorded and plotted as a function of the concentration of antibody. Data was analyzed in GraphPad Prism software using a four-parameter logistic equation over an 11-point dose response curve and IC₅₀ values were calculated. […] Percent blockade at maximum concentration of the antibody tested was calculated as an indicator of the ability of the antibodies to block the binding of TrkB to BDNF on the plate relative to the baseline of the assay. […]
# [1] = target: T2, human TrkB extracellular domain expressed with a C-terminal myc-myc-hexahistidine tag (human, UniProt Q16620 32-430); test: SPR Biacore T200, mAb captured (anti-mFc), 25C
# T2 construct: also called hTrkB.mmH; hTRKB.mmH
# T2 sequence (Q16620 other isoform, or with tags, fused parts or gaps): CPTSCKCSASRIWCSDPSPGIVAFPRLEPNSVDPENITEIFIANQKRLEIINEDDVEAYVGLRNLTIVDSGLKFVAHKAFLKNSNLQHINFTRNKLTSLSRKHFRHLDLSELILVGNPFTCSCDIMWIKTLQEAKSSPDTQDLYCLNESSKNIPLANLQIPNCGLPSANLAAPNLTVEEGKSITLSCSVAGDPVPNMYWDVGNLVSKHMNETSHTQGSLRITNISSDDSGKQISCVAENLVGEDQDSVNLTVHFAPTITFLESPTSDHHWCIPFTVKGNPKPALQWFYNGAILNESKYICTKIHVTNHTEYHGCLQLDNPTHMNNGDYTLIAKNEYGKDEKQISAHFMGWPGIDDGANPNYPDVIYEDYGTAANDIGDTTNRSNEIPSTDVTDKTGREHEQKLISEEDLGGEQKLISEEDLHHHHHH
# Procedure: (§3) Equilibrium dissociation constants (KD values) for TrkB binding to purified anti-TrkB monoclonal antibodies were determined using a real-time surface plasmon resonance biosensor using a Biacore T200 instrument. All binding studies were performed in 10 mM Hepes pH 7.4, 150 mM NaCl, 3 mM EDTA, and 0.05% v/v Surfactant Tween-20 (HBS-ET running buffer) at 25° C. The Biacore sensor surface was first derivatized by amine coupling with rabbit anti-mouse Fc polyclonal antibody (GE Healthcare #BR-1008-38) to capture anti-TrkB monoclonal antibodies. Binding studies were performed on the following TrkB reagents; human TrkB extracellular domain expressed with a C-terminal myc-myc-hexahistidine tag (hTrkB.mmH; SEQ ID NO: 76; NP_001018074.1), mouse TrkB extracellular domain expressed with a C-terminal myc-myc-hexahistidine tag (mTRKB.mmH; SEQ ID NO: 79; NP_001020245), and rat TrkB extracellular domain expressed with a C-terminal myc-myc-hexahistidine tag (rTRKB.mmH; SEQ ID NO: 84; XP_002721319.1). […] Kinetic association (kₐ) and dissociation (kd) rate constants were determined by fitting the real-time binding sensorgrams to a 1:1 binding model with mass transport limitation using Scrubber 2.0c curve-fitting software. Binding dissociation equilibrium constants (KD) and dissociative half-lives (t½) were calculated from the kinetic rate constants as: […]
# [2] = target: T3, rat TrkB extracellular domain expressed with a C-terminal myc-myc-hexahistidine tag (rat, UniProt Q63604 32-429); test: SPR Biacore T200, mAb captured (anti-mFc), 25C
# T3 construct: also called rTrkB.mmH; rTRKB.mmH
# T3 sequence (Q63604 other isoform, or with tags, fused parts or gaps): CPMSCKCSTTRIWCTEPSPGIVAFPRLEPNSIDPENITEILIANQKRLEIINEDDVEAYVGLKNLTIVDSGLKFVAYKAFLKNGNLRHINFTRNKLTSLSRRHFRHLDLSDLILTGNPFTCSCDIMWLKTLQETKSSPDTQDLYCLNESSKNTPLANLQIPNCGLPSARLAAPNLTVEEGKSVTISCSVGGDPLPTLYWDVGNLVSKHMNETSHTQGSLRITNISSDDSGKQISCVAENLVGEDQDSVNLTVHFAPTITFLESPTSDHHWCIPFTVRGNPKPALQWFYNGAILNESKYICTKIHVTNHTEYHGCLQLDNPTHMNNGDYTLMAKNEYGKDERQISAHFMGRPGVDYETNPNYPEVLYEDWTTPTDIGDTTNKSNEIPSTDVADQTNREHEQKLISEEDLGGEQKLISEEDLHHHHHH
# Procedure: as §3
# [3] = target: T4, mouse TrkB extracellular domain expressed with a C-terminal myc-myc-hexahistidine tag (mouse, UniProt P15209 32-429); test: SPR Biacore T200, mAb captured (anti-mFc), 25C
# T4 construct: also called mTrkB.mmH; mTRKB.mmH
# T4 sequence (P15209 other isoform, or with tags, fused parts or gaps): as the sequence (Q63604 other isoform, or with tags, fused parts or gaps) above, with M3T, T9S, T10A, I32V, K63R, G84S, T153M, I185L, T394S counted along it
# Procedure: as §3
# [4] = target: T3, rat TrkB extracellular domain expressed …; test: blocking ELISA: constant rat TrkB.mmh (REGN1808) pre-mixed with antibody, binding to plate-coated BDNF; half-maximal enhancement of the signal, not blockade
# Procedure: as §1, §2
# [5] = target: T3, rat TrkB extracellular domain expressed …; test: SPR, mAb captured (anti-mFc), 25C; 25 C; rTrkB.mmH
# Procedure: All binding studies were performed in 10 mM Hepes pH 7.4, 150 mM NaCl, 3 mM EDTA, and 0.05% v/v Surfactant Tween-20 (HBS-ET running buffer) at 25° C. and 37° C. […] Binding studies were performed on following TrkB reagents; human TrkB extracellular domain expressed with a C-terminal myc-myc-hexahistidine tag (hTRKB.mmH; SEQ ID NO: 76; Accession number NP_001018074.1), mouse TrkB extracellular domain expressed with a C-terminal myc-myc-hexahistidine tag (mTRKB.mmH; SEQ ID NO: 79; Accession number NP_001020245), rat TrkB extracellular domain expressed with a C-terminal myc-myc-hexahistidine tag (rTRKB.mmH; SEQ ID NO: 84; Accession number NP_036863.1), and human TrkB extracellular domain expressed with a C-terminal mouse IgG2a Fc tag (hTrkB-mFc; SEQ ID NO: 77; Accession number NP_001018074.1). […] Kinetic association (kₐ) and dissociation (kd) rate constants were determined by fitting the real-time binding sensorgrams to a 1:1 binding model with mass transport limitation using Scrubber 2.0c curve-fitting software. Binding dissociation equilibrium constants (KD) and dissociative half-lives (t½) were calculated from the kinetic rate constants as: […]
Binder,IC50 (read off the curve) (mouse TrkB.hFc) [nM],90nM hTrkB.mmH Bound (RU) [1] [RU],binding result [1],90 nM rTrkB.mmH Bound (RU) [2] [RU],Kd [2] [nM],koff [2] [s⁻¹],kon [2] [M⁻¹ s⁻¹],t½ [2] [min],90 nM TrkB.mmH Bound (RU) [3] [RU],Kd [3] [nM],koff [3] [s⁻¹],kon [3] [M⁻¹ s⁻¹],t½ [3] [min],EC50 (read off the curve) [4] [nM],Kd [5] [nM]
B1,~0.1,0,no binding (tested: 90 nM),33,8,0.000632,79000,18,33,8.49,0.00063,74100,18,,
B2,,-2,,33,26.9,0.00398,148000,2.9,32,32.4,0.00372,115000,3.1,~0.4,
B3,,,,,,,,,,,,,,,31.8

# Reference: patent US20190161551A1 (Regeneron, published 2019)
